In PMC9579167, “Structure of the proteolytic enzyme PAPP-A with the endogenous inhibitor stanniocalcin-2 reveals its inhibitory mechanism” (Nature Communications, 2022):

What was measured:
[1] = target: T1, 415-residue monomeric C-terminal PAPP-A fragment, PA(T1213-G1627) (human, UniProt Q13219 1213-1627); test: SPR; Biacore 3000, 25 °C; PA_T1213-G1627 amine-coupled to CM5 (7000 RU); IGFBP-4 injected 5 min at 10 µl/min; 10 mM HEPES pH 7.5, 150 mM NaCl, 2 mM CaCl2, 0.05% Tween-20; also with 10 mM EDTA; conditions: both partners purified
T1 construct: PAPP-A, human, residues T1213-G1627 (SCR1-5 and the C domain with LNR3); also called PAPP-A(T1213-G1627); C-terminal fragment of PAPP-A truncated at SCR1; source: 293T cells, transient transfection
T1 sequence (looked up): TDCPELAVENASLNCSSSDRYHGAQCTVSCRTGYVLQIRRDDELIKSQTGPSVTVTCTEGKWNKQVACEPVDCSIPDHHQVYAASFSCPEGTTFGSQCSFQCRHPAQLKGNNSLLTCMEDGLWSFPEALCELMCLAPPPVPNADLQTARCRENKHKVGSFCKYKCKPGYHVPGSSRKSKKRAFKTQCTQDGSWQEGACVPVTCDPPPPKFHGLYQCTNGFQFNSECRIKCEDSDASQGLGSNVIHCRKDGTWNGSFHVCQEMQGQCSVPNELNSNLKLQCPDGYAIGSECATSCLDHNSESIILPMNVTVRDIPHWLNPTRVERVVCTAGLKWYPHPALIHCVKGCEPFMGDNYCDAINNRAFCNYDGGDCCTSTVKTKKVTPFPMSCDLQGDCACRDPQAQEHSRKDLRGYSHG

[2] = target: the molecule itself; test: cryo-EM structure; single-particle cryo-EM of the purified 2:2 PAPP-A(E563Q)·STC2 complex from co-cultured 293T lines; 0.6 mg/mL; 20 mM HEPES, 100 mM NaCl, 1 mM CaCl2, pH 7.4

B1: human IGFBP-4 (natural protein, UniProt P22692 22-258, looked up)
chain: DEAIHCPPCSEEKLARCRPPVGCEELVREPGCGCCATCALGLGMPCGVYTPRCGSGLRCYPPRGVEKPLHTLMHGQGVCMELAEIEAIQESLQPSDKDEGDHPNNSFSPCSAHDRRCLQKHFAKIRDRSTSGGKMKVNGAPREDARPVPQGSCQSELHRALERLAASQSRTHEDLYIIPIPNCDRNGNFHPKQCHPALDGQRGKCWCVDRKTGVKLPGGLEPKGELDCHQLADSFRE
notes: also called pBP4mH; source: 293T cells, transient transfection
Question: Does B1 bind [1]?
Answer: Result: binds

B2: active site-inactivated human PAPP-A (E563Q) (enzyme, UniProt Q13219 82-1627, looked up)
chain: EARGATEEPSPPSRALYFSGRGEQLRLRADLELPRDAFTLQVWLRAEGGQRSPAVITGLYDKCSYISRDRGWVVGIHTISDQDNKDPRYFFSLKTDRARQVTTINAHRSYLPGQWVYLAATYDGQFMKLYVNGAQVATSGEQVGGIFSPLTQKCKVLMLGGSALNHNYRGYIEHFSLWKVARTQREILSDMETHGAHTALPQLLLQENWDNVKHAWSPMKDGSSPKVEFSNAHGFLLDTSLEPPLCGQTLCDNTEVIASYNQLSSFRQPKVVRYRVVNLYEDDHKNPTVTREQVDFQHHQLAEAFKQYNISWELDVLEVSNSSLRRRLILANCDISKIGDENCDPECNHTLTGHDGGDCRHLRHPAFVKKQHNGVCDMDCNYERFNFDGGECCDPEITNVTQTCFDPDSPHRAYLDVNELKNILKLDGSTHLNIFFAKSSEEELAGVATWPWDKEALMHLGGIVLNPSFYGMPGHTHTMIHQIGHSLGLYHVFRGISEIQSCSDPCMETEPSFETGDLCNDTNPAPKHKSCGDPGPGNDTCGFHSFFNTPYNNFMSYADDDCTDSFTPNQVARMHCYLDLVYQGWQPSRKPAPVALAPQVLGHTTDSVTLEWFPPIDGHFFERELGSACHLCLEGRILVQYASNASSPMPCSPSGHWSPREAEGHPDVEQPCKSSVRTWSPNSAVNPHTVPPACPEPQGCYLELEFLYPLVPESLTIWVTFVSTDWDSSGAVNDIKLLAVSGKNISLGPQNVFCDVPLTIRLWDVGEEVYGIQIYTLDEHLEIDAAMLTSTADTPLCLQCKPLKYKVVRDPPLQMDVASILHLNRKFVDMDLNLGSVYQYWVITISGTEESEPSPAVTYIHGSGYCGDGIIQKDQGEQCDDMNKINGDGCSLFCRQEVSFNCIDEPSRCYFHDGDGVCEEFEQKTSIKDCGVYTPQGFLDQWASNASVSHQDQQCPGWVIIGQPAASQVCRTKVIDLSEGISQHAWYPCTISYPYSQLAQTTFWLRAYFSQPMVAAAVIVHLVTDGTYYGDQKQETISVQLLDTKDQSHDLGLHVLSCRNNPLIIPVVHDLSQPFYHSQAVRVSFSSPLVAISGVALRSFDNFDPVTLSSCQRGETYSPAEQSCVHFACEKTDCPELAVENASLNCSSSDRYHGAQCTVSCRTGYVLQIRRDDELIKSQTGPSVTVTCTEGKWNKQVACEPVDCSIPDHHQVYAASFSCPEGTTFGSQCSFQCRHPAQLKGNNSLLTCMEDGLWSFPEALCELMCLAPPPVPNADLQTARCRENKHKVGSFCKYKCKPGYHVPGSSRKSKKRAFKTQCTQDGSWQEGACVPVTCDPPPPKFHGLYQCTNGFQFNSECRIKCEDSDASQGLGSNVIHCRKDGTWNGSFHVCQEMQGQCSVPNELNSNLKLQCPDGYAIGSECATSCLDHNSESIILPMNVTVRDIPHWLNPTRVERVVCTAGLKWYPHPALIHCVKGCEPFMGDNYCDAINNRAFCNYDGGDCCTSTVKTKKVTPFPMSCDLQGDCACRDPQAQEHSRKDLRGYSHG
modifications: N-glycans at N390, N402, N429, N480, N601, N725, N825, N1323
notes: numbers count on UniProt Q13219; also called pregnancy-associated plasma protein-A; pappalysin-1
Question: Does B2 bind [2]?
Answer: Result: binds
